Data on 6 molecules can be found in paper PMC9974998, “Structural mechanism for inhibition of PP2A-B56α and oncogenicity by CIP2A” (Nature Communications, 2023).

The labels stand for the following.
B1: CIP2A peptide (aa18-40) (peptide)
peptide: Biotin-KAVKSEANATQLLRHLEVISGQK
notes: CIP2A, human, head domain residues 18-40; also called CIP2A N-terminal head peptide; CIP2A head peptide; source: synthetic peptide (Fmoc solid phase, HPLC purified, 87% purity)
B2: B56α (recombinant, WT) (natural protein)
chain: not shown
notes: PP2A regulatory subunit B56α; pGEX-B56α WT; also called B56α WT; source: E. coli BL21, purified (glutathione agarose, GST removed with AcTEV); not shown: GST, N-terminal, cleaved
B3: GST-CIP2A(1-330) A24E (domain or fragment)
chain: not shown
notes: CIP2A, human, residues 1-330, A24E; also called A24E mutant; source: E. coli BL21, purified (glutathione agarose); not shown: GST, N-terminal, kept
B4: B56α Y215Q (natural protein)
chain: not shown
notes: PP2A regulatory subunit B56α with Y215Q; source: purified recombinant
B5: CIP2A(1-330) as used for XL-MS (domain or fragment)
chain: not shown
notes: CIP2A, human, residues 1-330; also called CIP2A(1-330) fragment; source: E. coli BL21, purified (glutathione agarose), dialysed into PBS pH 8, 2 mM DTT, 10% glycerol
B6: B56α K181A/K217A/K227A (recombinant) (natural protein)
chain: not shown
notes: PP2A regulatory subunit B56α with K181A, K217A and K227A; also called B56α triple mutant

Conditions in all cases: both partners purified
In experiment [1] the target is B2. Description: pull-down; competition: B56α pre-incubated with CIP2A peptide (aa.18-40) 30 min 37 °C, then GST-BubR1(647-720) 1 h 37 °C, 10 pmol each, glutathione bead pull-down, Western blot. A general note: A western blot detects proteins with antibodies after separation by electrophoresis.
Experiment [2] deals with T1, GST-CIP2A(1-560) (human, UniProt Q8TCG1 1-560).
T1 construct: CIP2A, human, residues 1-560; pGEX vector, thrombin-cleavable N-terminal GST; also called GST-tagged CIP2A(1-560) WT; GST-fused CIP2A(1-560); source: E. coli BL21, purified (glutathione agarose); not shown: GST, N-terminal, kept
Description: pull-down; GST-CIP2A incubated with the pre-assembled PP2A-B56α holoenzyme (A-B56α-PP2Ac), glutathione beads; Coomassie gel and Western blot; CIP2A also titrated against equal molar amounts of PP2A proteins.

The target of the next experiment is T2, GST-CIP2A(1-560) K8A (human, UniProt Q8TCG1 1-560, K8A).
T2 construct: CIP2A, human, residues 1-560, K8A; also called CIP2A(1-560) K8A mutant; source: E. coli BL21, purified (glutathione agarose); not shown: GST, N-terminal, kept
Description: pull-down; GST pull-down on glutathione agarose; 10 pmol of each protein in 150 µL 50 mM Tris HCl pH 7.5, 150 mM NaCl, 2 mM DTT, 0.2% Igepal, 10% glycerol, 1 h 37 °C; Western blot.

The target of experiment [3] is T3, CIP2A(1-560) as used for XL-MS (human, UniProt Q8TCG1 1-560).
T3 construct: CIP2A, human, residues 1-560; source: E. coli BL21, purified (glutathione agarose), dialysed into PBS pH 8, 2 mM DTT, 10% glycerol
The experiment in a line: cross-linking; XL-MS: CIP2A and B56α mixed 1:2, RT 60 min, about 0.5 mg/mL; DSS 100 or 500 µM (PBS pH 8.0, 2 mM DTT, 10% glycerol, 30 min 37 °C) or PDH + DMTMM (pH 7, 45 min 37 °C); LC-MS/MS, xQuest.

A further experiment addresses T4, CIP2A(1-560)V5 His (human, UniProt Q8TCG1 1-560).
T4 construct: CIP2A, human, residues 1-560; also called V5-tagged recombinant CIP2A(1-560); source: recombinant
Description: pull-down; competition: GST-BubR1(647-720), B56α and CIP2A(1-560)V5, 10 pmol each, glutathione bead pull-down, B56α on BubR1 by Western blot.

In experiment [4] the target is B2. Description: pull-down; GST pull-down on glutathione agarose; 10 pmol of each protein in 150 µL 50 mM Tris HCl pH 7.5, 150 mM NaCl, 2 mM DTT, 0.2% Igepal, 10% glycerol, 1 h 37 °C; Western blot.
The target in experiment [5] is T1, GST-CIP2A(1-560). The description is as above.
The target of experiment [6] is B2. The experiment in a line: cross-linking; XL-MS: CIP2A and B56α mixed 1:2, RT 60 min, about 0.5 mg/mL; DSS 100 or 500 µM (PBS pH 8.0, 2 mM DTT, 10% glycerol, 30 min 37 °C) or PDH + DMTMM (pH 7, 45 min 37 °C); LC-MS/MS, xQuest.

No end group written: not given here. *: point of attachment. Biotin = O=C1N[C@H]2[C@H](CS[C@H]2CCCCC(=O)*)N1

Regarding B1, in the experiment with B56α (recombinant, WT) [1], the binding result is “binds”.

For B2, the binding result (in the experiment with GST-CIP2A(1-560) [2]; with GST-CIP2A(1-560) K8A; in experiment [3]; with CIP2A(1-560)V5 His) was “binds” in each case.

On to B3, for which the binding result in the experiment with B56α (recombinant, WT) [4] is “binds”.

As for B4, in the experiment with GST-CIP2A(1-560) [5], the binding result is on record as “binds”.

Take B5: in the experiment with B56α (recombinant, WT) [6], the binding result is “binds”.

On to B6, for which the binding result in the experiment with GST-CIP2A(1-560) [5] is given as “binds”.
